Drawing on article PMC12221286, “Endogenous formation of phosphatidylhomoserine in Escherichia coli through phosphatidylserine synthase” (The Journal of Biological Chemistry, 2025), this text covers Km and kcat for one protein.

The Km is the substrate concentration at which the rate is half of its maximum. As a reminder, the kcat is the maximal rate divided by the concentration of active sites.

Substrate in the series: N[C@@H](CCO)C(=O)O
Kind of series: purified protein. In kind it is biochemical, Escherichia coli. The conditions noted are these: 0.3 mM 18:1/18:1 CDP-DAG, 10 mM MgCl2, 0.1 M KCl, 2.4 mM Triton X-100, pH 7.5, 25 °C, apparent constants.

B1: EcPssA (E. coli phosphatidylserine synthase A, PssA) (Escherichia coli K-12) (protein)
chain: MLSKFKRNKHQQHLAQLPKISQSVDDVDFFYAPADFRETLLEKIASAKQRICIVALYLEQDDGGKGILNALYEAKRQRPELDVRVLVDWHRAQRGRIGAAASNTNADWYCRMAQENPGVDVPVYGVPINTREALGVLHFKGFIIDDSVLYSGASLNDVYLHQHDKYRYDRYHLIRNRKMSDIMFEWVTQNIMNGRGVNRLDDVNRPKSPEIKNDIRLFRQELRDAAYHFQGDADNDQLSVTPLVGLGKSSLLNKTIFHLMPCAEQKLTICTPYFNLPAILVRNIIQLLREGKKVEIIVGDKTANDFYIPEDEPFKIIGALPYLYEINLRRFLSRLQYYVNTDQLVVRLWKDDDNTYHLKGMWVDDKWMLITGNNLNPRAWRLDLENAILIHDPQLELAPQREKELELIREHTTIVKHYRDLQSIADYPVKVRKLIRRLRRIRIDRLISRIL
notes: purified EcPssA in Tris/NaCl/glycerol/octyl glucoside
In the case of B1, the Km was found to be 4.6 ± 0.02 mM and the kcat was 2.86 ± 0.04 s⁻¹.
